# Measurements published in patent US12356911B2, “Group of UDP-glycosyltransferase for catalyzing carbohydrate chain elongation and application thereof” (GSYNBIOT (SHANGHAI) CO., LTD, priority 2017, dated 2025).
# Numbering of substitutions follows the chain as printed.
# B1: GT29-43: Ginseng UDP-glycosyltransferase, 442 amino acids, SEQ ID NO.: 96 (protein)
# chain: MDNQKGRISIALLPFLAHGHISPFFELAKQLAKRNCNVFLCSTPINLSSIKDKDSSASIKLVELHLPSSPDLPPHYHTTNGLPSHLMLPLRNAFETAGPTFSEILKTLNPDLLIYDFNPSWAPEIASSHNIPAVYFLTTAAASSSIGLHAFKNPGEKYPFPDFYDNSNITPEPPSADNMKLLHDFIACFERSCDIILIKSFRELEGKYIDLLSTLSDKTLVPVGPLVQDPMGHNEDPKTEQIINWLDKMAESTVVFVCFGSEYFLSNEELEEVAIGLEISTVNFIWAVRLIEGEKKGILPEGFVQRVGDRGLVVEGWAPQARILGHSSTGGFVSHCGWSSIAESMKFGVPVIAMARHLDQPLNGKLAAEVGVGMEVVRDENGKYKREGIAEVIRKVVVEKSGEVIRRKARELSEKMKEKGEQEIDRALEELVQICKKKKDEQ
# modifications: Panax ginseng
# B2: GT29-42: Ginseng UDP-glycosyltransferase, 444 amino acids, SEQ ID NO.: 94 (protein)
# chain: MDNQEGRISIALLPFLAHGHISPFFELAKQLAKRNCNVFLCSTPINLSSIKNKDSSASIKLVELHLPSSPDLPPHYHTTNGLPSHLMVPLINAFETAGPTFSEILKTLNPDLLIYDFNPSWAPEIASSHNIPAVYFLTTAAASSSIGLHAFKNPGEKYPFPDFYDNSNNTPEPPSADNMKLLHDFIACFERSCDIILIKSFIELEGKYIDLLSTLSDKTLVPVGPLVQDPMGHNEDPKTEQIINWLDKRAESTVVFVCFGSEYFLSNEELEEVAIGLEISMVNFIWAVRLIEGEKKGVLPEGFVQRVGDRGLVVEGWAPQARILGHSSTGGFVSHCGWSSIMESVKFGVPVIAMARHLDQPLNAKLAAEVGVGMEVMRDENGKYKREAIAEVIRKVVMEKNGEVMRRKARELSEKMKVKGEQEIGRAVEELVQICKKKKQHAQY
# modifications: Panax ginseng
# B3: GT29-23: Ginseng UDP-glycosyltransferase, 442 amino acids, SEQ ID NO: 124 (protein)
# chain: MDNQEGRISIALLPFLAHGHISPFFELAKQLAKRNCNVFLCSTPINLSSIKNKDSSASIKLVELHLPSSPDLPPHYHTTNGLPSHLMVPLINAFETAGPTFSEILKTLNPDLLIYDFNPSWAPEIASSHNIPAVYFLTTAAASSSIGLHAFKNPGEKYPFPDFYDNSNNTPEPPSADNMKLLHDFIACFERSCDIILIKSFIELEGKYIDLLSTLSDKTLVPVGPLVQDPMGHNEDPKTEQIINWLDKRAESTVVFVCFGSEYFLSNEELEEVAIGLEISMVNFIWAVRLIEGEKKGVLPEGFVQRVGDRGLVVEGWAPHARILGHSSTGGFVSHCGWSSIAESMKFGVPVIAMARHLDQPLNGKLAAEVGVGMEVVRDENGKYKREGIAEVIRKVVVEKSGEVMRRKARELSEKMKEKGEEEIDRAVEELVQICKKKKDAQ
# modifications: misc_feature - GT29-23; Panax ginseng
# B4: GT29-36: Ginseng UDP-glycosyltransferase, 442 amino acids, SEQ ID NO.: 90 (protein)
# chain: B3 chain with E5K, N52D, V88L, I91R, N169I, I202R, H320Q
# modifications: Panax ginseng
# B5: GT29-37: Ginseng UDP-glycosyltransferase, 442 amino acids, SEQ ID NO.: 92 (protein)
# chain: B1 chain with K5E, D52N, L88V, R91I, M249R
# modifications: Panax ginseng
# B6: GT29-25: Ginseng UDP-glycosyltransferase, 446 amino acids, SEQ ID NO: 30 (protein)
# chain: MDNQKGRISIVMLPFLAHGHISPFFELAKHLSKRNCNIFLCSTPINLSSIKNRISDKDSSASIKLVELHLPSSPDLPPHYHTTNGLPSHLMVPLRNAFETAAPTFSEILKTLNPDLLIYDFNPSWAPEIASSHNIPAVCFIIGGAASFSMSLHSFKNPGEKYPFLDFDDNSNITPEPPSADNMKLLLDFMTCFERSCDIILIKSFRELEGKYFDFYSTLSDKTLVPVGPLVQDPMGHNEDPKTEQFINWLDKRAESTVVFVCFGSEYFLSNEELEEVAIGLEISMVNFIWAVRLIEGEKKGVLPEGFVQRVGDRGLVVEGWAPQARILGHSSTGGFVSHCGWSSITESMKFGVPVIAMARHFDQPLNAKLAAEVGVGTEVVRDENGKYKREDIAGVIRKVVVEKSGEVIRRKARELSEKMKEIGEQLIDRAVEELVQICKKKKDEQ
# modifications: misc_feature - GT29-25; Panax ginseng
# B7: GT29-24: Ginseng UDP-glycosyltransferase, 446 amino acids, SEQ ID NO: 28 (protein)
# chain: B6 chain with T378M, D392G, G395E, I409M, I423K, Q426E, L427E, E445A
# modifications: misc_feature - GT29-24; Panax ginseng
# B8: GT29-34: Ginseng UDP-glycosyltransferase, 446 amino acids, SEQ ID NO: 8 (protein)
# chain: MDIEKGRIIIVMLPFLAHGHISPFFELAKHLSKRNCNIFLCSTPINLSSIKNRVSDKDSSASIKLVELHLPSSPDLPPHYHTTNGLPSHLMVPLRNAFETAAPTFSEILKTLNPDLLIYDFNPSWAPEIASSHNIPAVYFLTSAAATSSMGLHAFKNSGEKYPFPDFYDNSNITPEPPSADKMKLFHDFVACFKRSCDIILIKSFRELEGKYIDFLSTLSKKTLVPVGPLVQDPMGHDEDPKTGHLINWLDKRAESTVVFVCFGSEYFPSNEELEELAIGLEISMVSFILAVRFPEGEKKGILPEGFVQRVGDRGLVVEGWAPQARILGHSSTGGFVSHCGWSSIMESVKFGVPVIAMARHLDQPLNAKLAAEVGVGMEVMRDENGKYKREGIAEVIRKVVVEKSGEVMRRKARELSEKMKEKGEEEIDRAVEELVQICKKKKDAQ
# modifications: misc_feature - GT29-34; Panax ginseng
# B9: GT29-33: Ginseng UDP-glycosyltransferase, 448 amino acids, SEQ ID NO: 6 (protein)
# chain: MDIEKGRISIVMLPFLAHGHISPFFELAKHLSKRNCNIFLCSTPINLSSIKNRVSDKDSSASIKLVELHLPSSPDLPPHYHTTNGLPSHLMVPLRNAFETAAPTFSEILKTLNPDLLIYDFNPSWAPEIASSHNIPAVYFLTSAAATSSMGLHAFKNSGEKYPFPDFYDNSNITPEPPSADKMKLFHDFVACFKRSCDIILIKSFRELEGKYIDFLSTLSKKTLVPVGPLVQDPMGHDEDPKTGHLINWLDKRAESTVVFVCFGSEYFPSNEELEELAIGLEISMVSFILAVRFPEGEKKGILPEGFVQRVGDRGLVVEGWAPQSRILGHSSTGGFVSHCGWSSIMESVKFGVPVIAMARHLDQPLNAKLAAEVGVGMEVMRDENGKYKREAIAEVIRKVVMEKNGEVMRRKARELSEKMKVKGEQEIGRAVEELVQICKKKKQHAQY
# modifications: misc_feature - GT29-33; Panax ginseng
# Experiment: In vitro transglycosylation at C-3, Rd as glycosyl acceptor, UDP-xylose as donor
# Assay type: biochemical
# Conditions: crude enzyme (E. coli lysate supernatant); TLC, FIG. 14
row,Molecule,product formation from Rd and UDP-xylose (replacement of second glucose at C-3 with xylose)
1,B1,can all catalyze the replacement of the second glucose at C-3 position of Rd with xylose
2,B2,can all catalyze the replacement of the second glucose at C-3 position of Rd with xylose
3,B3,can all catalyze the replacement of the second glucose at C-3 position of Rd with xylose
4,B4,can all catalyze the replacement of the second glucose at C-3 position of Rd with xylose
5,B5,can all catalyze the replacement of the second glucose at C-3 position of Rd with xylose

# Experiment: In vitro transglycosylation at C-3, F2 as glycosyl acceptor, UDP-glucose as donor
# Assay type: biochemical
# Conditions: crude enzyme (E. coli lysate supernatant)
row,Molecule,product formation from F2 and UDP-glucose (Rd)
1,B6,can further catalyze the extension of a glucosyl at the C-3 glycosyl of F2 to produce ginsenoside Rd
2,B7,can further catalyze the extension of a glucosyl at the C-3 glycosyl of F2 to produce ginsenoside Rd

# Experiment: In vitro transglycosylation at C-3, Rh2 as glycosyl acceptor, UDP-glucose as donor
# Assay type: biochemical
# Conditions: crude enzyme (E. coli lysate supernatant); TLC, FIG. 13, FIG. 15
# Excerpt: (§1) Cell lysate of recombinant E. coli with empty vector pET28a was used as a control.
row,Molecule,product formation from Rh2 and UDP-glucose (Rg3)
1,B6,catalyze the production of ginsenoside Rg3
2,B7,catalyze the production of ginsenoside Rg3
3,B1,can all catalyze the extension of a glucosyl at the C-3 glycosyl of Rh2 to generate Rg3
4,B2,can all catalyze the extension of a glucosyl at the C-3 glycosyl of Rh2 to generate Rg3
5,B3,can all catalyze the extension of a glucosyl at the C-3 glycosyl of Rh2 to generate Rg3
6,B4,can all catalyze the extension of a glucosyl at the C-3 glycosyl of Rh2 to generate Rg3
7,B5,can all catalyze the extension of a glucosyl at the C-3 glycosyl of Rh2 to generate Rg3

# Experiment: In vitro transglycosylation at C-6, Rg1 as glycosyl acceptor, UDP-xylose as donor
# Assay type: biochemical
# Conditions: crude enzyme (E. coli lysate supernatant); TLC and HPLC, FIG. 7-9
row,Molecule,product formation from Rg1 and UDP-xylose (notoginsenoside R1)
1,B6,can catalyze the formation of Notoginsenoside RI
2,B7,can catalyze the formation of Notoginsenoside RI

# Experiment: In vitro transglycosylation at C-20, CK as glycosyl acceptor, UDP-glucose as donor
# Assay type: biochemical
# Conditions: crude enzyme (E. coli lysate supernatant); TLC/HPLC, FIG. 2, 3, 12, 16
# Excerpt: as §1
# As shown in FIG. 16: Protopanaxadiol Ginsenoside CK is used as a glycosyl acceptor, and UDP-glucose is used as a glycosyl donor.
row,Molecule,product formation from CK and UDP-glucose (Gypenoside LXXV)
1,B8,can catalyze the formation of a new product

# Experiment: In vitro transglycosylation at C-20, Rd as glycosyl acceptor, UDP-glucose as donor
# Assay type: biochemical
# Conditions: crude enzyme (E. coli lysate supernatant); TLC/HPLC, FIG. 2, 3, 11
# Excerpt: as §1
row,Molecule,product formation from Rd and UDP-glucose (Rb1)
1,B8,can catalyze the formation of Rb1
2,B9,can catalyze the formation of Rb1

# Experiment: In vitro transglycosylation at C-20, CK as glycosyl acceptor, UDP-arabinose as donor
# Assay type: biochemical
# Conditions: crude enzyme (E. coli lysate supernatant); TLC, FIG. 17
row,Molecule,product formation from CK and UDP-arabinose (Ginsenoside F3)
1,B8,can catalyze the first glycosyl of C-20 of CK to extend an arabinosyl to generate Ginsenoside F3
2,B9,can catalyze the first glycosyl of C-20 of CK to extend an arabinosyl to generate Ginsenoside F3
